From paper doi:10.1101/373860 (bioRxiv, 2018)

Target: the molecule itself
Assay: cryo-EM structure

B1: Arabidopsis thaliana two-pore channel 1 with D240N, D454N, E528Q (AtTPC1DDE), deletion of residues 2-11 (natural protein, UniProt Q94KI8 1-733, looked up)
chain: MGGGGTDRVRRSEAITHGTPFQKAAALVDLAEDGIGLPVEILDQSSFGESARYYFIFTRLDLIWSLNYFALLFLNFFEQPLWCEKNPKPSCKDRDYYYLGELPYLTNAESIIYEVITLAILLVHTFFPISYEGSRIFWTSRLNLVKVACVVILFVDVLVDFLYLSPLAFDFLPFRIAPYVRVIIFILSIRELRDTLVLLSGMLGTYLNILALWMLFLLFASWIAFVMFENTQQGLTVFTSYGATLYQMFILFTTSNNPDVWIPAYKSSRWSSVFFVLYVLIGVYFVTNLILAVVYDSFKEQLAKQVSGMDQMKRRMLEKAFGLIDSDKNGEIDKNQCIKLFEQLTNYRTLPKISKEEFGLIFDELDDTRDFKINKDEFADLCQAIALRFQKEEVPSLFEHFPQIYHSALSQQLRAFVRSPNFGYAISFILIINFIAVVVETTLNIEESSAQKPWQVAEFVFGWIYVLEMALKIYTYGFENYWREGANRFDFLVTWVIVIGETATFITPDENTFFSNGQWIRYLLLARMLRLIRLLMNVQRYRAFIATFITLIPSLMPYLGTIFCVLCIYCSIGVQVFGGLVNAGNKKLFETELAEDDYLLFNFNDYPNGMVTLFNLLVMGNWQVWMESYKDLTGTWWSITYFVSFYVITILLLLNLVVAFVLEAFFTELDLEEEEKCQGQDSQEKRNRRRSAGSKSRSQRVDTLLHHMLGDELSKPECSTSDT
stoichiometry N: 2
